Where a chain is given by its changes, count along the chain named. In names and notes the source's numbering stands.
B1: SEQID-00298 (BS): nutritive polypeptide naturally produced in Cow (protein, listed as Bos taurus)
chain: MGLSDGEWQLVLNAWGKVEADVAGHGQEVLIRLFTGHPETLEKFDKFKHLKTEAEMKASEDLKKHGNTVLTALGGILKKKGHHEAEVKHLAESHANKHKIPVKYLEFISDAIIHVLHAKHPSDFGADAQAAMSKALELFRNDMAAQYKVLGFHG
B2: Reduced and alkylated SEQID-00363: SEQID-00363 with disulfide bonds reduced and alkylated (protein)
chain: ATLDSWLSNEATVARTAILNNIGADGAWVSGADSGIVVASPSTDNPDYFYTWTRDSGLVLKTLVDLFRNGDTSLLSTIENYISAQAIVQGISNPSGDLSSGAGLGEPKFNVDETAYTGSWGRPQRDGPALRATAMIGFGQWLLDNGYTSTATDIVWPLVRNDLSYVAQYWNQTGYDLWEEVNGSSFFTIAVQHRALVEGSAFATAVGSSCSWCDSQAPEILCYLQSFWTGSFILANFDSSRSGKDANTLLGSIHTFDPEAACDDSTFQPCSPRALANHKEVVDSFRSIYTLNDGLSDSEAVAVGRYPEDTYYNGNPWFLCTLAAAEQLYDALYQWDKQGSLEVTDVSLDFFKALYSDAATGTYSSSSSTYSSIVDAVKTFADGFVSIVETHAASNGSMSEQYDKSDGEQLSARDLTWSYAALLTANNRRNSVVPASWGETSASSVPGTCAATSAIGTYSSVTVTSWPSIVATGGTTTTATPTGSGSVTSTSKTTATASKTSTSTSSTSCTTPTAVAVTFDLTATTTYGENIYLVGSISQLGDWETSDGIALSADKYTSSDPLWYVTVTLPAGESFEYKFIRIESDDSVEWESDPNREYTVPQACGTSTATVTDTWR
modifications: disulfides reduced and alkylated; Aspergillus niger
B3: Heat-denatured SEQID-00363: SEQID-00363 30 g/L in 10% PBS rapidly heated to 95° C. (protein)
chain: B2 chain
modifications: heat-denatured; Aspergillus niger
B4: R134M: single amino acid mutant of SEQID-00338, substrate binding position 134 (protein, listed as Saccharomyces cerevisiae)
chain: MSSSESIRMVLIGPPGAGKGTQAPNLQERFHAAHLATGDMLRSQIAKGTQLGLEAKKIMDQGGLVSDDIMVNMIKDELTNNPACKNGFILDGFPRTIPQAEKLDQMLKEQGTPLEKAIELKVDDELLVARITGMLIHPASGRSYHKIFNPPKEDMKDDVTGEALVQRSDDNADALKKRLAAYHAQTEPIVDFYKKTGIWAGVDASQPPATVWADILNKLGKD
modifications: source: /note="strain ATCC 204508 / S288c"
B5: R134Y: single amino acid mutant of SEQID-00338, substrate binding position 134 (protein, listed as Saccharomyces cerevisiae)
chain: B4 chain with M134Y
modifications: source: /note="strain ATCC 204508 / S288c"
B6: R42A: single amino acid mutant of SEQID-00338, substrate binding position 42 (protein, listed as Saccharomyces cerevisiae)
chain: B4 chain with R42A, M134R
modifications: source: /note="strain ATCC 204508 / S288c"
B7: R42C: single amino acid mutant of SEQID-00338, position 42 (protein, listed as Saccharomyces cerevisiae)
chain: B4 chain with R42C, M134R
modifications: source: /note="strain ATCC 204508 / S288c"
B8: R42G: single amino acid mutant of SEQID-00338, position 42 (protein, listed as Saccharomyces cerevisiae)
chain: B4 chain with R42G, M134R
modifications: source: /note="strain ATCC 204508 / S288c"
B9: R42I: single amino acid mutant of SEQID-00338, position 42 (protein, listed as Saccharomyces cerevisiae)
chain: B4 chain with R42I, M134R
modifications: source: /note="strain ATCC 204508 / S288c"
B10: R42K: single amino acid mutant of SEQID-00338, position 42 (protein, listed as Saccharomyces cerevisiae)
chain: B4 chain with R42K, M134R
modifications: source: /note="strain ATCC 204508 / S288c"
B11: R42L: single amino acid mutant of SEQID-00338, position 42 (protein, listed as Saccharomyces cerevisiae)
chain: B4 chain with R42L, M134R
modifications: source: /note="strain ATCC 204508 / S288c"
B12: R42Q: single amino acid mutant of SEQID-00338, position 42 (protein, listed as Saccharomyces cerevisiae)
chain: B4 chain with R42Q, M134R
modifications: source: /note="strain ATCC 204508 / S288c"
B13: R42T: single amino acid mutant of SEQID-00338, position 42 (protein, listed as Saccharomyces cerevisiae)
chain: B4 chain with R42T, M134R
modifications: source: /note="strain ATCC 204508 / S288c"
B14: D91F: single amino acid mutant of SEQID-00338, magnesium ion binding site position 91 (protein, listed as Saccharomyces cerevisiae)
chain: B4 chain with D91F, M134R
modifications: source: /note="strain ATCC 204508 / S288c"
B15: D91I: single amino acid mutant of SEQID-00338, position 91 (protein, listed as Saccharomyces cerevisiae)
chain: B4 chain with D91I, M134R
modifications: source: /note="strain ATCC 204508 / S288c"

Tested on: Pancreatin
Test: not given
Type: in vitro ADME, Porcine
Conditions: not given
Method: Control samples were protease-free.
Analyses were performed using an Agilent 1100 series system.

| Molecule | Free Leu (μM) at 120 min time point of Pancreatin digest [µM] |
| --- | --- |
| B1 | 1030.8 |
| B2 | 598.1 |
| B3 | 763.5 |

Tested on: SEQID-00338 kinase activity (AMP + ATP→ADP)
Test: Kinase activity of SEQID-00338 (ADP-Glo Max Assay)
Type: biochemical
Conditions: 7 μg/mL, 30 minute reaction at 30° C.
Method: The ADP-Glo™ Max Assay was obtained from Promega (Catalog number V7001, Madison, Wis.). Adenosine Monophosphate was obtained from Sigma-Aldrich (Catalog number A1752, St. Louis, Mo.). 5× Kinase Buffer was prepared w/ 1.211 g Tris Base (Catalog number BP152-2, Fisher Bioreagents, Pittsburgh, Pa.), 692 μL 12% hydrochloric acid solution (Catalog number BDH3026-500MLP, VWR, Radnor, Pa.), 10.0 mL 500 mM magnesium chloride (Catalog number BP214-500, Fisher Bioreagents, Pittsburgh, Pa.) and the volume brought to 50 mL with MilliQ water and filtered through 0.22 μm PES filter (Catalog number SCGP00525, Millipore, Billerica, Mass.) into a sterile 50 mL tube.
Twelve his-tag purified mutant proteins and the wild-type protein at 35 μg/mL in Tris buffer were serially diluted to 7.0 and 1.4 μg/mL. Prepared kinase reaction mix at 0.5 mM AMP/0.5 mM ATP to test for activity and at 0 mM AMP/0 mM ATP to assay background activity by diluting 5× Kinase Buffer with appropriate volumes of 10 mM AMP and 10 mM ATP in MilliQ water. Duplicate reactions were prepared by mixing 9 μL of the reaction mixture with 6 μL of diluted SEQID-00338, mixing by pipetting up and down and dispensing 5 μL into a 384-well white OptiPlate (PerkinElmer, Waltham, Mass.). An ADP standard curve was prepared by serially diluting 4 mM ADP in MilliQ water and adding kinase buffer to 1× for a standard at 0.0005, 0.001, 0.005, 0.01, 0.05, 0.1, 0.5, 1, 2, 3, and 4 mM ADP. The plate was covered with a foil plate seal and incubated at 30° C. for 30 min. Following the kinase reaction, 5 μL of ADP-Glo™ Reagent was added to each well. The plate was sealed with a foil plate seal and placed on a horizontal plate shaker at 450 rpm for 2 minutes at room temperature. The plate was removed from the plate shaker and incubated at room temperature for 40 minutes. The plate was then centrifuged for 15 seconds at 1109×rcf and 10 μL of ADP-Glo™ Max Detection Reagent was added. The plate was sealed with a foil plate seal and shaken on a horizontal plate shaker at 450 rpm at room temperature for 2 minutes. The plate was then removed from the plate shaker and incubated at room temperature for 60 minutes. The plate was centrifuged for 15 seconds at 1109×rcf and the luminescence read on an EnspireAlpha plate reader (PerkinElmer, Waltham, Mass.).
The ADP standard curve was used to determine the concentration of ADP in sample wells in the presence or absence of substrate. Concentrations were determined by performing a non-linear 4 parameter logistic on the X=log(X) transformed ADP standard luminescence values. […] Where the background concentration of ADP in the absence of substrate was calculable the average of those values were subtracted from the calculated ADP concentration in the substrate incubated wells. Activity knock out was calculated by percentage activity relative to purified wild-type protein at the same concentration.

| Molecule | AVG percent activity relative to purified wild-type protein [%] |
| --- | --- |
| B4 | 0.3 |
| B5 | 0.2 |
| B6 | 0.9 |
| B7 | 1.8 |
| B8 | 1.2 |
| B9 | 1.5 |
| B10 | 2.2 |
| B11 | 1.7 |
| B12 | 1.2 |
| B13 | 1.9 |
| B14 | 0.9 |
| B15 | 0.4 |

Tested on: not listed separately
Test: Intact half-life during simulated gastric fluid (SGF) digestion
Conditions: SGF pH 1.5, pepsin:polypeptide 1:20 w/w, 37° C.; intact protein

| Molecule | SGF Half-life (t½) [min] |
| --- | --- |
| B1 | 0.1 |

Same assay, conditions: native and modified forms of SEQID-00363, gel electrophoresis

| Molecule | SGF Half-life (t½) [min] |
| --- | --- |
| B2 | 20.4 |
| B3 | 20.4 |

— patent publication US20160228506A1, “Compositions and Formulations for Prevention and Reduction of Tumorigenesis, Cancer Cell Proliferation and Invasion, and Methods of Production and Use Thereof in Cancer Treatment” (PRONUTRIA, INC., priority 2013, published 2016)
